Values belong to the molecule of their own block, whether it stands above or below them.
What was measured:
[1] = target: full length STAT6 (human) (UniProt P42226); assay: cell-based or functional assay
[2] = target: GST-STAT6 aa 677-847 protein (human); assay: ELISA: 500 ng GST-STAT6 (677-847) coated, 250 ng His-NCoA-1 added, detected by Penta-His and anti-mouse-HRP; average of three experiments, s.d. 0,036
Chain of GST-STAT6 aa 677-847 protein (human) (chain, as listed by the source limits assumed): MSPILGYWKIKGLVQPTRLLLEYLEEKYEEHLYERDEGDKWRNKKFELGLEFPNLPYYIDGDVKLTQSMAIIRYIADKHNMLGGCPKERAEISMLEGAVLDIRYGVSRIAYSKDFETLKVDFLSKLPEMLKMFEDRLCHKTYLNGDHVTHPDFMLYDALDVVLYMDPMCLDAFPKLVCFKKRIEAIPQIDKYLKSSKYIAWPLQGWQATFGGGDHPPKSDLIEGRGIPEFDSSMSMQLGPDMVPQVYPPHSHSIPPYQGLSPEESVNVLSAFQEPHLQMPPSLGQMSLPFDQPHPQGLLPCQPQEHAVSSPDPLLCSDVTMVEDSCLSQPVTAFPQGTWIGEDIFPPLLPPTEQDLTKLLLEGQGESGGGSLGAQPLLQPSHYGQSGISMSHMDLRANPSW

Chain of UniProt P42226 (P42226 2-847): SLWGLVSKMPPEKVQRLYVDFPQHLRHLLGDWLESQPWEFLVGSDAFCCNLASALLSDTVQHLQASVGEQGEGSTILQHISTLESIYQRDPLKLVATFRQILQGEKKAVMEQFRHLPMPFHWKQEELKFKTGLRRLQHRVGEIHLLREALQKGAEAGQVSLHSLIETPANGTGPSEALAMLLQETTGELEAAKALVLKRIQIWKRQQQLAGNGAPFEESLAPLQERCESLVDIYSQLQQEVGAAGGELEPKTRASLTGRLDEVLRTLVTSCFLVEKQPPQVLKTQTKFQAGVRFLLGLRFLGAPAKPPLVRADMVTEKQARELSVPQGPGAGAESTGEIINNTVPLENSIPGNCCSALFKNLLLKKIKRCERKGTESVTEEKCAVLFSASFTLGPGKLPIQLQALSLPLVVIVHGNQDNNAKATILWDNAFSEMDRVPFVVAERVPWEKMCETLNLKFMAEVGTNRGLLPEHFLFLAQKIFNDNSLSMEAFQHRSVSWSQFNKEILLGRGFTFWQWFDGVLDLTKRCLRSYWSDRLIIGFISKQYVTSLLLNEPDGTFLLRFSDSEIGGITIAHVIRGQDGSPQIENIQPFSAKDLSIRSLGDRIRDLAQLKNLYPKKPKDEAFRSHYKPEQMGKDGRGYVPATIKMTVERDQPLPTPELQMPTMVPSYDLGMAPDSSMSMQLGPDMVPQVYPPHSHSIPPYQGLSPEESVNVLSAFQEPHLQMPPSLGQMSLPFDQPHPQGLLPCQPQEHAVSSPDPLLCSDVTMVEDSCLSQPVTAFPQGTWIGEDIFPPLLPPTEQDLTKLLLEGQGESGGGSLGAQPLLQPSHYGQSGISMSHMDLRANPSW

IL-4 induced luciferase reporter gene expression (multimerized STAT6 response elements) in HepG2 cells [1]: < 3 fold
Molecule: NCoA-1 (nuclear coactivator 1), full length (from UniProt P70365 2-1447)

Extinction 493 nm [2]: 0.795
B1: His-tagged NCoA-1 aa 212-463 (protein)
chain: MHHHHHHSSGLVPRGSGMKETAAAKFERQHMDSPDLGTDDDDKAMGYLWIQEACQRYEVMQCFTVSQPKSIQEDGEDFQSCLICIARRLPRPPAITGVESFMTKQDTTGKIISIDTSSLRAAGRTGWEDLVRKCIYAFFQPQGREPSYARQLFQEVMTRGTASSPSYRFILNDGTMLSAHTKCKLCYPQSPDMQPFIMGIHIIDREHSGLSPQDDSNSGMSIPRINPSVNPGISPAHGVTRSSTLPPSNNNMVSARVNRQQSSDLNSSSSHTNSSNNQGNFGCSPGNQIVANVALNQGQAGSLEHHHHHH

Reference: patent publication EP1410040B1
